Test results from publication PMC7950113.
Blank lines part the entries; values can stand above or below the substance they belong to.

Experiments:
Test in all cases: Co-AP mass spectrometry with TMT quantification
Conditions in all cases: TMT intensities of interactors normalized to Tg intensities, read off a plot
[1] = biological target: ER degradation enhancing alpha-mannosidase-like 3 [human (endogenous in HEK293 cells)]
[2] = biological target: OS9 endoplasmic reticulum lectin [human (endogenous in HEK293 cells)]
[3] = biological target: RAD-dependent oxidoreductase domain containing 2 [human (endogenous in HEK293 cells)]
[4] = biological target: SEL1L adaptor subunit of ERAD E3 ubiquitin ligase [human (endogenous in HEK293 cells)]
[5] = biological target: UDP-glucose glycoprotein glucosyltansferase 1 [human (endogenous in HEK293 cells)]
[6] = biological target: calnexin [human (endogenous in HEK293 cells)]
[7] = biological target: calreticulin [human (endogenous in HEK293 cells)]
[8] = biological target: glucosidase II alpha subunit [human (endogenous in HEK293 cells)]
[9] = biological target: oligosaccharyl transferase complex catalytic subunit B [human (endogenous in HEK293 cells)]
[10] = biological target: protein disulfide isomerase family A member 3 [human (endogenous in HEK293 cells)]

Substance: FLAG-tagged thyroglobulin, WT mutant A2234D [human] / ER degradation enhancing alpha-mannosidase-like 3 [human (endogenous in HEK293 cells)] chain 1 A2215D
screen value [1]: 0.2 log2

Substance: FLAG-tagged thyroglobulin, WT mutant A2234D [human] / OS9 endoplasmic reticulum lectin [human (endogenous in HEK293 cells)] chain 1 A2215D
screen value [2]: 0.83 log2

Substance: FLAG-tagged thyroglobulin, WT mutant A2234D [human] / RAD-dependent oxidoreductase domain containing 2 [human (endogenous in HEK293 cells)] chain 1 A2215D
screen value [3]: 0.67 log2

Substance: FLAG-tagged thyroglobulin, WT mutant A2234D [human] / SEL1L adaptor subunit of ERAD E3 ubiquitin ligase [human (endogenous in HEK293 cells)] chain 1 A2215D
screen value [4]: 0.57 log2

Substance: FLAG-tagged thyroglobulin, WT mutant A2234D [human] / UDP-glucose glycoprotein glucosyltansferase 1 [human (endogenous in HEK293 cells)] chain 1 A2215D
screen value [5]: 0.38 log2

Substance: FLAG-tagged thyroglobulin, WT mutant A2234D [human] / calnexin [human (endogenous in HEK293 cells)] chain 1 A2215D
screen value [6]: -0.1 log2

Substance: FLAG-tagged thyroglobulin, WT mutant C1264R [human] / ER degradation enhancing alpha-mannosidase-like 3 [human (endogenous in HEK293 cells)] chain 1 C1245R
screen value [1]: 0.07 log2

Substance: FLAG-tagged thyroglobulin, WT mutant C1264R [human] / OS9 endoplasmic reticulum lectin [human (endogenous in HEK293 cells)] chain 1 C1245R
screen value [2]: 0.39 log2

Substance: FLAG-tagged thyroglobulin, WT mutant C1264R [human] / RAD-dependent oxidoreductase domain containing 2 [human (endogenous in HEK293 cells)] chain 1 C1245R
screen value [3]: 0.42 log2

Substance: FLAG-tagged thyroglobulin, WT mutant C1264R [human] / SEL1L adaptor subunit of ERAD E3 ubiquitin ligase [human (endogenous in HEK293 cells)] chain 1 C1245R
screen value [4]: 0.43 log2

Substance: FLAG-tagged thyroglobulin, WT mutant C1264R [human] / UDP-glucose glycoprotein glucosyltansferase 1 [human (endogenous in HEK293 cells)] chain 1 C1245R
screen value [5]: 0.25 log2

Substance: FLAG-tagged thyroglobulin, WT mutant C1264R [human] / calnexin [human (endogenous in HEK293 cells)] chain 1 C1245R
screen value [6]: -0.24 log2

Substance: FLAG-tagged thyroglobulin, WT mutant G2341R [human] / ER degradation enhancing alpha-mannosidase-like 3 [human (endogenous in HEK293 cells)] chain 1 G2322R
screen value [1]: 0.09 log2

Substance: FLAG-tagged thyroglobulin, WT mutant G2341R [human] / OS9 endoplasmic reticulum lectin [human (endogenous in HEK293 cells)] chain 1 G2322R
screen value [2]: 0.73 log2

Substance: FLAG-tagged thyroglobulin, WT mutant G2341R [human] / RAD-dependent oxidoreductase domain containing 2 [human (endogenous in HEK293 cells)] chain 1 G2322R
screen value [3]: 0.45 log2

Substance: FLAG-tagged thyroglobulin, WT mutant G2341R [human] / SEL1L adaptor subunit of ERAD E3 ubiquitin ligase [human (endogenous in HEK293 cells)] chain 1 G2322R
screen value [4]: 0.44 log2

Substance: FLAG-tagged thyroglobulin, WT mutant G2341R [human] / UDP-glucose glycoprotein glucosyltansferase 1 [human (endogenous in HEK293 cells)] chain 1 G2322R
screen value [5]: 0.64 log2

Substance: FLAG-tagged thyroglobulin, WT mutant L2284P [human] / ER degradation enhancing alpha-mannosidase-like 3 [human (endogenous in HEK293 cells)] chain 1 L2265P
screen value [1]: 0.2 log2

Substance: FLAG-tagged thyroglobulin, WT mutant L2284P [human] / OS9 endoplasmic reticulum lectin [human (endogenous in HEK293 cells)] chain 1 L2265P
screen value [2]: 0.57 log2

Substance: FLAG-tagged thyroglobulin, WT mutant L2284P [human] / RAD-dependent oxidoreductase domain containing 2 [human (endogenous in HEK293 cells)] chain 1 L2265P
screen value [3]: 0.58 log2

Substance: FLAG-tagged thyroglobulin, WT mutant L2284P [human] / SEL1L adaptor subunit of ERAD E3 ubiquitin ligase [human (endogenous in HEK293 cells)] chain 1 L2265P
screen value [4]: 0.49 log2

Substance: FLAG-tagged thyroglobulin, WT mutant L2284P [human] / UDP-glucose glycoprotein glucosyltansferase 1 [human (endogenous in HEK293 cells)] chain 1 L2265P
screen value [5]: 0.58 log2

Results, then the substance that gave them:

screen value [7]: 0.07 log2
Substance: FLAG-tagged thyroglobulin, WT mutant A2234D [human] / calreticulin [human (endogenous in HEK293 cells)] chain 1 A2215D

screen value [8]: 0.2 log2
Substance: FLAG-tagged thyroglobulin, WT mutant A2234D [human] / glucosidase II alpha subunit [human (endogenous in HEK293 cells)] chain 1 A2215D

screen value [9]: -0.11 log2
Substance: FLAG-tagged thyroglobulin, WT mutant A2234D [human] / oligosaccharyl transferase complex catalytic subunit B [human (endogenous in HEK293 cells)] chain 1 A2215D

screen value [10]: 0.16 log2
Substance: FLAG-tagged thyroglobulin, WT mutant A2234D [human] / protein disulfide isomerase family A member 3 [human (endogenous in HEK293 cells)] chain 1 A2215D

screen value [8]: 0.16 log2
Substance: FLAG-tagged thyroglobulin, WT mutant C1264R [human] / glucosidase II alpha subunit [human (endogenous in HEK293 cells)] chain 1 C1245R

screen value [9]: -0.21 log2
Substance: FLAG-tagged thyroglobulin, WT mutant C1264R [human] / oligosaccharyl transferase complex catalytic subunit B [human (endogenous in HEK293 cells)] chain 1 C1245R

screen value [10]: 0.35 log2
Substance: FLAG-tagged thyroglobulin, WT mutant C1264R [human] / protein disulfide isomerase family A member 3 [human (endogenous in HEK293 cells)] chain 1 C1245R

screen value [6]: 0.06 log2
Substance: FLAG-tagged thyroglobulin, WT mutant G2341R [human] / calnexin [human (endogenous in HEK293 cells)] chain 1 G2322R

screen value [8]: 0.36 log2
Substance: FLAG-tagged thyroglobulin, WT mutant G2341R [human] / glucosidase II alpha subunit [human (endogenous in HEK293 cells)] chain 1 G2322R

screen value [9]: 0.26 log2
Substance: FLAG-tagged thyroglobulin, WT mutant G2341R [human] / oligosaccharyl transferase complex catalytic subunit B [human (endogenous in HEK293 cells)] chain 1 G2322R

screen value [10]: 0.55 log2
Substance: FLAG-tagged thyroglobulin, WT mutant G2341R [human] / protein disulfide isomerase family A member 3 [human (endogenous in HEK293 cells)] chain 1 G2322R

screen value [6]: 0.13 log2
Substance: FLAG-tagged thyroglobulin, WT mutant L2284P [human] / calnexin [human (endogenous in HEK293 cells)] chain 1 L2265P

screen value [8]: 0.26 log2
Substance: FLAG-tagged thyroglobulin, WT mutant L2284P [human] / glucosidase II alpha subunit [human (endogenous in HEK293 cells)] chain 1 L2265P

screen value [9]: 0.07 log2
Substance: FLAG-tagged thyroglobulin, WT mutant L2284P [human] / oligosaccharyl transferase complex catalytic subunit B [human (endogenous in HEK293 cells)] chain 1 L2265P

screen value [10]: 0.6 log2
Substance: FLAG-tagged thyroglobulin, WT mutant L2284P [human] / protein disulfide isomerase family A member 3 [human (endogenous in HEK293 cells)] chain 1 L2265P
